From patent US20200115422A1 (OXFORD UNIVERSITY INNOVATION, published 2020)

How the values were obtained:
AffiHER2-DogTag = assay: cell-based or functional assay
DogTag-mClover3 = assay: cell-based or functional assay
MBP-DogTag = assay: cell-based or functional assay
SUMO-DogTag = assay: cell-based or functional assay
[1] = biological target: DogTag-HaloTag7SS fusion protein; assay: cell-based or functional assay
IMX-DogTag = assay: cell-based or functional assay
biotinylated SnoopLigase = biological target: T1, biotinylated SnoopLigase (biotin on the AP peptide (BirA biotinylation)); assay: competition elution at 37 °C from biotin-SnoopLigase on streptavidin-agarose; SDS-PAGE
T1 construct: Captured or immobilised on streptavidin-agarose in the elution experiments; also called Biotin-SnoopLigase; biotin-SnoopLigase; not shown: N-terminal His6-tag and flexible GS-rich linker; AP, substrate peptide for BirA biotinylation
T1 chain: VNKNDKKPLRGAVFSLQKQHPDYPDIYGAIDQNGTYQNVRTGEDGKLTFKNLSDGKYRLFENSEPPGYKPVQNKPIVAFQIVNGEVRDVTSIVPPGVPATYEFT

Molecule: HaloTag7SS-SnoopTagJr
- Percentage of DogTag partner reacted (AffiHER2-DogTag): 100%
- Percentage of SnoopTagJr partner reacted (AffiHER2-DogTag): 99.3%
- Percentage of DogTag partner reacted (DogTag-mClover3): 96.1%
- Percentage of SnoopTagJr partner reacted (DogTag-mClover3): 98%
- Percentage of DogTag partner reacted (MBP-DogTag): 97%
- Percentage of DogTag partner reacted (SUMO-DogTag): 99.7%
- Percentage of SnoopTagJr partner reacted (SUMO-DogTag): 99%

Molecule: MBP-SnoopTagJr
- Percentage of DogTag partner reacted (AffiHER2-DogTag): 100%
- Percentage of SnoopTagJr partner reacted (AffiHER2-DogTag): 93.3%
- Percentage of DogTag partner reacted (DogTag-mClover3): 85.4%
- Percentage of SnoopTagJr partner reacted (DogTag-mClover3): 79.5%
- Percentage of DogTag partner reacted (MBP-DogTag): 95%
- Percentage of DogTag partner reacted (SUMO-DogTag): 99%
- Percentage of SnoopTagJr partner reacted (SUMO-DogTag): 99.1%

Molecule: SnoopTagJr-AffiHER2
- Percentage of DogTag partner reacted (AffiHER2-DogTag): 99.9%
- Percentage of SnoopTagJr partner reacted (AffiHER2-DogTag): 100%
- reaction yield [1]: 90%
- Percentage of DogTag partner reacted (DogTag-mClover3): 94%
- Percentage of SnoopTagJr partner reacted (DogTag-mClover3): 99.8%
- Percentage of DogTag partner reacted (MBP-DogTag): 98.4%
- Percentage of SnoopTagJr partner reacted (MBP-DogTag): 100%
- Percentage of DogTag partner reacted (SUMO-DogTag): 99.9%
- Percentage of SnoopTagJr partner reacted (SUMO-DogTag): 99.9%
- reaction yield (SUMO-DogTag): 99%

Molecule: SnoopTagJr-MBP
- reaction yield (IMX-DogTag): 96%

Molecule: SnoopTagJr-mEGFP
- Percentage of DogTag partner reacted (AffiHER2-DogTag): 99.9%
- Percentage of SnoopTagJr partner reacted (AffiHER2-DogTag): 99.9%
- Percentage of DogTag partner reacted (DogTag-mClover3): 82.3%
- Percentage of SnoopTagJr partner reacted (DogTag-mClover3): 89.4%
- Percentage of DogTag partner reacted (MBP-DogTag): 87.8%
- Percentage of SnoopTagJr partner reacted (MBP-DogTag): 99.7%
- Percentage of DogTag partner reacted (SUMO-DogTag): 99.1%
- Percentage of SnoopTagJr partner reacted (SUMO-DogTag): 100%

B1: SnoopTagJr:DogTag competitor peptide (peptide)
peptide 1: KLGSIEFIKVNK
peptide 2: DIPATYEFTDGKHYITNEPIPPK
modifications: not fully specified; Asn 17 joined by an isopeptide bond to Lys 9 of SnoopTagJr; Lys 9 joined by an isopeptide bond to Asn 17 of DogTag
notes: Made from SUMO-DogTag and synthetic SnoopTagJr peptide with immobilised HaloTag7-SnoopLigase, then cut from SUMO by Ulp1; also called SnoopTagJr:DogTag peptide conjugate; DogTag:SnoopTagJr peptide
- binding result (biotinylated SnoopLigase): binds
